Experimental data published in article PMC7615141, “ADAMTS-7 modulates atherosclerotic plaque formation by degradation of TIMP-1” (Circulation research, 2023).

B1: ADAMTS-7-FLAG (enzyme, human, UniProt Q9UKP4 28-1686, looked up)
chain: APGPAPGRATEGRAALDIVHPVRVDAGGSFLSYELWPRALRKRDVSVRRDAPAFYELQYRGRELRFNLTANQHLLAPGFVSETRRRGGLGRAHIRAHTPACHLLGEVQDPELEGGLAAISACDGLKGVFQLSNEDYFIEPLDSAPARPGHAQPHVVYKRQAPERLAQRGDSSAPSTCGVQVYPELESRRERWEQRQQWRRPRLRRLHQRSVSKEKWVETLVVADAKMVEYHGQPQVESYVLTIMNMVAGLFHDPSIGNPIHITIVRLVLLEDEEEDLKITHHADNTLKSFCKWQKSINMKGDAHPLHHDTAILLTRKDLCAAMNRPCETLGLSHVAGMCQPHRSCSINEDTGLPLAFTVAHELGHSFGIQHDGSGNDCEPVGKRPFIMSPQLLYDAAPLTWSRCSRQYITRFLDRGWGLCLDDPPAKDIIDFPSVPPGVLYDVSHQCRLQYGAYSAFCEDMDNVCHTLWCSVGTTCHSKLDAAVDGTRCGENKWCLSGECVPVGFRPEAVDGGWSGWSAWSICSRSCGMGVQSAERQCTQPTPKYKGRYCVGERKRFRLCNLQACPAGRPSFRHVQCSHFDAMLYKGQLHTWVPVVNDVNPCELHCRPANEYFAEKLRDAVVDGTPCYQVRASRDLCINGICKNVGCDFEIDSGAMEDRCGVCHGNGSTCHTVSGTFEEAEGLGYVDVGLIPAGAREIRIQEVAEAANFLALRSEDPEKYFLNGGWTIQWNGDYQVAGTTFTYARRGNWENLTSPGPTKEPVWIQLLFQESNPGVHYEYTIHREAGGHDEVPPPVFSWHYGPWTKCTVTCGRGVQRQNVYCLERQAGPVDEEHCDPLGRPDDQQRKCSEQPCPARWWAGEWQLCSSSCGPGGLSRRAVLCIRSVGLDEQSALEPPACEHLPRPPTETPCNRHVPCPATWAVGNWSQCSVTCGEGTQRRNVLCTNDTGVPCDEAQQPASEVTCSLPLCRWPLGTLGPEGSGSGSSSHELFNEADFIPHHLAPRPSPASSPKPGTMGNAIEEEAPELDLPGPVFVDDFYYDYNFINFHEDLSYGPSEEPDLDLAGTGDRTPPPHSHPAAPSTGSPVPATEPPAAKEEGVLGPWSPSPWPSQAGRSPPPPSEQTPGNPLINFLPEEDTPIGAPDLGLPSLSWPRVSTDGLQTPATPESQNDFPVGKDSQSQLPPPWRDRTNEVFKDDEEPKGRGAPHLPPRPSSTLPPLSPVGSTHSSPSPDVAELWTGGTVAWEPALEGGLGPVDSELWPTVGVASLLPPPIAPLPEMKVRDSSLEPGTPSFPTPGPGSWDLQTVAVWGTFLPTTLTGLGHMPEPALNPGPKGQPESLSPEVPLSSRLLSTPAWDSPANSHRVPETQPLAPSLAEAGPPADPLVVRNAGWQAGNWSECSTTCGLGAVWRPVRCSSGRDEDCAPAGRPQPARRCHLRPCATWHSGNWSKCSRSCGGGSSVRDVQCVDTRDLRPLRPFHCQPGPAKPPAHRPCGAQPCLSWYTSSWRECSEACGGGEQQRLVTCPEPGLCEEALRPNTTRPCNTHPCTQWVVGPWGQCSGPCGGGVQRRLVKCVNTQTGLPEEDSDQCGHEAWPESSRPCGTEDCEPVEPPRCERDRLSFGFCETLRLLGRCQLPTIRTQCCRSCSPPSHGAPSRGHQRVARR
notes: ADAMTS-7, human; also called ADAMTS-7-FLAG-cryptate; TS7-FLAG-Crypt; source: HEK293, transfected, in lysate

Columns and labels:
ADAMTS-7-FLAG = target: B1; test: AlphaScreen or HTRF; competition in the time-resolved FRET assay: untagged recombinant TIMP-1 (400 or 800 ng) added to ADAMTS-7-FLAG and TIMP-1-HA in lysates; 665/620 nm ratio; seven independent experiments; settings: one partner purified
[1] = target: T1, TIMP-1-HA (tissue inhibitor of metalloproteinases 1 with HA tag) (human, UniProt P01033 24-207); test: AlphaScreen or HTRF; time-resolved FRET; lysates of HEK293 cells overexpressing ADAMTS-7-FLAG and TIMP-1-HA incubated with anti-FLAG-cryptate and anti-HA-d2 antibodies; excitation 337 nm; 665/620 nm ratio as readout; settings: partners not purified
T1 construct: source: HEK293, transfected, in lysate; also in the supernatant
T1 sequence (P01033 24-207): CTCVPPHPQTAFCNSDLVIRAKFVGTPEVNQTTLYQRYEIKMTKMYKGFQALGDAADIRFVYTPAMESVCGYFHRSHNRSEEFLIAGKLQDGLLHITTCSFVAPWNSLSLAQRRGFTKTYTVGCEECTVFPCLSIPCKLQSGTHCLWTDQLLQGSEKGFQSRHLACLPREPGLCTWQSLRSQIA

[2] = target: T1, TIMP-1-HA (tissue inhibitor of …); test: AlphaScreen or HTRF; the pair ADAMTS-7-FLAG and TIMP-1-HA in the competition experiment (lysates; 0 ng untagged TIMP-1 as reference); 665/620 nm ratio; seven independent experiments; settings: partners not purified

Row | Binder | FRET ratio (665/620) of ADAMTS-7-FLAG with TIMP-1-HA in the presence of 400 ng untagged TIMP-1 (ADAMTS-7-FLAG) | FRET ratio (665/620) of ADAMTS-7-FLAG with TIMP-1-HA in the presence of 800 ng untagged TIMP-1 (ADAMTS-7-FLAG) | FRET ratio (665/620) [1] | FRET ratio (665/620) with 0 ng untagged TIMP-1 [2]
1 | untagged, recombinant TIMP-1 (natural protein, The supplier may be named in the Supplemental Material; also called untagged TIMP-1; source: recombinant, untagged) not shown | 4420 665/620 ratio | 3570 665/620 ratio | – | –
2 | B1 | – | – | 5480 665/620 ratio | 4950 665/620 ratio
